Assay results published in patent US6090631.

Tests used:
[1] = target: GST-syntaxin 1A fusion protein, full-length (2-289) (rat); assay: GST-syntaxin 1A pull-down (5 µM GST-syntaxin, 10 µM fusion protein), immunoblot
[2] = target: GST-syntaxin 1A fusion protein, full-length (2-289) (rat); assay: competition on GST-syntaxin beads against 125I-ω-CTx-GVIA-labeled N-type channels
[3] = target: GST-syntaxin 1A fusion protein, full-length (2-289) (rat); assay: GST-syntaxin pull-down at equal concentrations, immunoblot
[4] = target: GST-syntaxin 1A fusion protein, full-length (2-289) (rat); assay: titration on GST-syntaxin beads, immunoblot
[5] = target: GST fusion protein including full-length SNAP-25 (Mus musculus (Mouse)) (UniProt P60879); assay: titration on GST-SNAP-25 beads, immunoblot
[6] = target: GST alone (Schistosoma japonicum (Blood fluke)) [GST: P08515]; assay: 125I-ω-CTx-GVIA-labeled channels on GST beads, direct counting

In the case of His-LII-III (832-963), the pixel value (phosphorimaging of bound fusion protein, FIG. 14) [1] is reported as 751 pixel value.

With His-LII-III (1027-1145) the percent reduction in the specific binding of labeled N-type channels to GST-syntaxin [2] was 10%.

With rbB 718-963 the fold higher affinity than rbB 718-859 [3] was 40 fold, the fold greater affinity than hBI 722-1036 [4] was 10 fold and the half-maximal saturation [4] was 0.2 µM. For the same substance, the pixel value (phosphorimaging of bound fusion protein, FIG. 14) [1] was 1650 pixel value.

His-LII-III (718-859) was tested, and the pixel value (phosphorimaging of bound fusion protein, FIG. 14) [1] was 45 pixel value.

His-LII-III (773-859) gave a percent reduction in the specific binding of labeled N-type channels to GST-syntaxin [2] of 78%.

For hBI 722-1036, the half-maximal saturation [4] was 2 µM and the half-maximal saturation [5] was 1 to 2 µM.

In the case of “[125I]-ω-CTx-GVIA-labeled N-type calcium channels, partially purified from rat brain (from UniProt Q02294)”, the cpm of labeled channels bound [6] is reported as 549 cpm.
